The values that follow come from publication doi:10.1101/765990 (bioRxiv, 2019).

This assay concerns the target T1, Sed5p Habc domain (amino acids 1-210) (budding yeast, UniProt Q01590 1-210).
T1 sequence: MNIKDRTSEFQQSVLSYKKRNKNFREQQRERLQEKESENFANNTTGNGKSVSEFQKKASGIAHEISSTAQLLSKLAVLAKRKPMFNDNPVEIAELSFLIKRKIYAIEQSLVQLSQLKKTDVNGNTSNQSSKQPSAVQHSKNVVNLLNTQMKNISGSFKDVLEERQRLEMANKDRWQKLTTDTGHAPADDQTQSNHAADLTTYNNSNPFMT
The experiment in a line: native gel or EMSA.

B1: Sed5p SNARE-motif (amino acids 211-320), wild type (domain or fragment)
chain: SLLDESSEKNNNSSNQGELSFPQNDSQLMLMEEGQLSNNVYLQERNRAVETIESTIQEVGNLFQQLASMVQEQGEVIQRIDANVDDIDLNISGAQRELLKYFDRIKSNRW
Take B1: the binding result is “binds”.
